Experimental data taken from PMC3312813 (Nature chemical biology, 2011).

System: live HeLa cells
Details: 8 µM Flu-HBS 3, HeLa cells, 2.5 hours, fixed, Z-section fluorescence microscopy

CC[C@H](C)[C@H](NC(=O)CN1C/C=C/CCC(=O)N[C@@H](Cc2ccccc2)C(=O)N[C@@H](CCC(=O)O)C1=O)C(=O)N[C@@H](Cc1ccc(O)cc1)C(=O)N[C@@H](CCCNC(=N)N)C(=O)N[C@@H](CC(C)C)C(=O)N[C@@H](CCC(=O)O)C(=O)N[C@@H](CC(C)C)C(=O)N[C@@H](CC(C)C)C(=O)N[C@@H](CCCCN)C(=O)N[C@@H](C)C(=O)N[C@@H](CCC(=O)O)C(=O)N[C@@H](CCC(=O)O)C(=O)N[C@@H](C)C(=O)N[C@@H](CC(N)=O)C(=O)N[C@@H](CCCCNC(=O)c1ccc2c(c1)C(=O)OC21c2ccc(O)cc2Oc2cc(O)ccc21)C(N)=O [Flu-HBS 3]
Cellular uptake at 4 °C as compared to 37 °C: significantly reduced
